Experiment [1] has as its target IgE (lambda light chain) secreted by U266 cells. The experiment in a line: flow cytometry, Ramos + U266 mixed 100X1 with the StAv-FcεRIα capture complex; 94.6 % of the cells lie in the IgM+ gate at low secreted IgE. (In flow cytometry, cells or beads pass a laser one at a time.)
Experiment [2] has the same target. Description: flow cytometry, U266 cells alone with the StAv-FcεRIα capture complex; x axis Secreted IgE, y axis IgM.
The next experiment concerns the target Secreted IgG. Description: flow cytometry, human bone marrow plasma cells (CD20- CD38++) with NHS-biotin, StAv-anti-human Igk and anti-IgG; controls in FIG. 21B (D00065): without NHS-Biotin 1.2%, without StAv-IgKappa 0.72%, without anti-IgG 0%.

Turning to “secreted IgE capture reagent: streptavidin conjugated to the ectodomain of the high affinity IgE receptor FcεRIα (from UniProt P12319 26-205)”, the % of cells in the secreted IgE+ / IgM- gate in experiment [1] is 2.4%; in experiment [2] it was 94.9%.

Consider “streptavidin coupled to anti-human Igk (antibody)”, for which the % IgG+ of plasma cells in the experiment with Secreted IgG came out at 5.2%.

Source of the values: patent US20230349919A1.
